{"source": "paper PMC5916898", "about": "“Global profiling of protein–DNA and protein–nucleosome binding affinities using quantitative mass spectrometry”", "key": {"DLX3": {"target": "DLX3 (Homo sapiens, UniProt O60479)", "assay": "pulldown; 150 mM NaCl, 50 mM Tris pH 8, 0.25% NP-40, 1 mM TCEP; 4 C, 2 h; 100 ug HeLa nuclear lysate", "details": "protein: extract; label: 5' biotin (strand 1)"}, "ZNF787": {"target": "ZNF787 (Homo sapiens, UniProt Q6DD87)", "sequence (Q6DD87 whole entry)": "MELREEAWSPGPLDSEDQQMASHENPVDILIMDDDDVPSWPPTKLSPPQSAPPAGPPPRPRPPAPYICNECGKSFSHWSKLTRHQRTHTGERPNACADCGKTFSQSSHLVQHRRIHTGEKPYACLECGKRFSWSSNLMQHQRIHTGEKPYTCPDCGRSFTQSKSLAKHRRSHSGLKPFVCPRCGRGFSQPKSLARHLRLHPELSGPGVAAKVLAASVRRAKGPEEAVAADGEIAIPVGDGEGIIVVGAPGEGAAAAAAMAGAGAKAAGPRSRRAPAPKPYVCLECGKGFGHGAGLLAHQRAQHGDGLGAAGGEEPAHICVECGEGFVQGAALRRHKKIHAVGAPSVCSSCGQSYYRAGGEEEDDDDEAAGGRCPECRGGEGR", "assay": "pulldown; 150 mM NaCl, 50 mM Tris pH 8, 0.25% NP-40, 1 mM TCEP; 4 C, 2 h; 100 ug HeLa nuclear lysate", "details": "protein: extract; label: 5' biotin (strand 1)"}, "ZFHX3": {"target": "ZFHX3 (Homo sapiens, UniProt Q15911)", "assay": "pulldown; 150 mM NaCl, 50 mM Tris pH 8, 0.25% NP-40, 1 mM TCEP; 4 C, 2 h; 100 ug HeLa nuclear lysate", "details": "protein: extract; label: 5' biotin (strand 1)"}, "GATA2": {"target": "GATA2 (Homo sapiens, UniProt P23769)", "sequence (P23769 whole entry)": "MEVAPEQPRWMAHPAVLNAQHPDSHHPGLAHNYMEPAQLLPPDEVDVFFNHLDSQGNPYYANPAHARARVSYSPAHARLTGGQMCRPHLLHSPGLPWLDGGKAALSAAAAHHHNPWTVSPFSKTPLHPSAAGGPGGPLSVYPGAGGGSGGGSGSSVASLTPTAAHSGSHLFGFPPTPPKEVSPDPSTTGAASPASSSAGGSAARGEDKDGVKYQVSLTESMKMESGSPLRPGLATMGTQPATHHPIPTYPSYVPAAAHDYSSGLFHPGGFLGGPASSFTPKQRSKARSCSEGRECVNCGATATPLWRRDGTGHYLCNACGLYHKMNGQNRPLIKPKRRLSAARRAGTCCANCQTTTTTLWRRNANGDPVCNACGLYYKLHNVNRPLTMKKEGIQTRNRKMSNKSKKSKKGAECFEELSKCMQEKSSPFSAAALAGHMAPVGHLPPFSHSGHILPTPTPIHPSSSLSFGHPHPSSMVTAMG", "assay": "pulldown; 150 mM NaCl, 50 mM Tris pH 8, 0.25% NP-40, 1 mM TCEP; 4 C, 2 h; 100 ug HeLa nuclear lysate", "details": "protein: extract; label: 5' biotin (strand 1)"}, "RREB1": {"target": "RREB1 (Homo sapiens, UniProt Q92766)", "sequence (Q92766 whole entry)": "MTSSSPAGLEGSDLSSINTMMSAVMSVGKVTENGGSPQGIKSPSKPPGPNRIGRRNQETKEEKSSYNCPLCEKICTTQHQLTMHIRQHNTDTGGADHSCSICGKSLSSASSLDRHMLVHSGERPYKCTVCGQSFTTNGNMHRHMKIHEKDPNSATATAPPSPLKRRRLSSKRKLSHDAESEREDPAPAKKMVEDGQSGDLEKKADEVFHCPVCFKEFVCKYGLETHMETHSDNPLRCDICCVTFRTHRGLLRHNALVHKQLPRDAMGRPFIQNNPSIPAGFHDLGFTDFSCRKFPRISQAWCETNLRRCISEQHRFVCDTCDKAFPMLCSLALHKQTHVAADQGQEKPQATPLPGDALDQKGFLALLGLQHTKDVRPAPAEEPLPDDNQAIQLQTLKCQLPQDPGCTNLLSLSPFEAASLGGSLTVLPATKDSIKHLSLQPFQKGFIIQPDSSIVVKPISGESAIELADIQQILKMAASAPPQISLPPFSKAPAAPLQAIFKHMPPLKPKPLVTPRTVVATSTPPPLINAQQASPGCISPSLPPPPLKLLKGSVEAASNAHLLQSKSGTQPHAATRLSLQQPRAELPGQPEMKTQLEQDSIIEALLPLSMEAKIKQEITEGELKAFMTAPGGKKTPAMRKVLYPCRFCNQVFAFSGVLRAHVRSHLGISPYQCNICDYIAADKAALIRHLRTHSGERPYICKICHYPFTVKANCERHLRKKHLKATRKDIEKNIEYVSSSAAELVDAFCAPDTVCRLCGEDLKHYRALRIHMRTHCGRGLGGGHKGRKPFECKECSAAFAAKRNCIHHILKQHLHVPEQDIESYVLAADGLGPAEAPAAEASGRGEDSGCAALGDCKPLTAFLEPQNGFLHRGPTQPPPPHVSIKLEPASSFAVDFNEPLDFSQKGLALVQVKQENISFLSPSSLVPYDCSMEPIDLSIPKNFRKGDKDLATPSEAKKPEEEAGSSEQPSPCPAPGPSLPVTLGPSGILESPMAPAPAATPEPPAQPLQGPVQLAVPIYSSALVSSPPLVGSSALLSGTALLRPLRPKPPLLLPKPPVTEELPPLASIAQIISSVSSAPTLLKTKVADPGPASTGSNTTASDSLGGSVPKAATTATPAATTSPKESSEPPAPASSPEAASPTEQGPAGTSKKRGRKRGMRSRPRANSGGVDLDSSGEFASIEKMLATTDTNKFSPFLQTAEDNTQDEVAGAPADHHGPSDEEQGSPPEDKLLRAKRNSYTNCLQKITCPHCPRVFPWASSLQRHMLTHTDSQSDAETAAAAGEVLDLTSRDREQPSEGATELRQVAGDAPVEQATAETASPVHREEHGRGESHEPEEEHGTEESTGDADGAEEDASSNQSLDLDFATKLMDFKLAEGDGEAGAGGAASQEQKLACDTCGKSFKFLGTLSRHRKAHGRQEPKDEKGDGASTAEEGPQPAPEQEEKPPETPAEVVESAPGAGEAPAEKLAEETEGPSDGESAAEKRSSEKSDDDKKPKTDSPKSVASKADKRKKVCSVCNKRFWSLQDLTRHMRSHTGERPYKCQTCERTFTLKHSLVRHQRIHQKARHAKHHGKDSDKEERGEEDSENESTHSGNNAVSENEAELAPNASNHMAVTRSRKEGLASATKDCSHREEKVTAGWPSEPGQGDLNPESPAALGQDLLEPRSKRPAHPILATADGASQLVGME", "assay": "pulldown; 150 mM NaCl, 50 mM Tris pH 8, 0.25% NP-40, 1 mM TCEP; 4 C, 2 h; 100 ug HeLa nuclear lysate", "details": "protein: extract; label: 5' biotin (strand 1)"}, "VEZF1": {"target": "T1, VEZF1 (Homo sapiens, UniProt Q14119)", "T1 sequence": "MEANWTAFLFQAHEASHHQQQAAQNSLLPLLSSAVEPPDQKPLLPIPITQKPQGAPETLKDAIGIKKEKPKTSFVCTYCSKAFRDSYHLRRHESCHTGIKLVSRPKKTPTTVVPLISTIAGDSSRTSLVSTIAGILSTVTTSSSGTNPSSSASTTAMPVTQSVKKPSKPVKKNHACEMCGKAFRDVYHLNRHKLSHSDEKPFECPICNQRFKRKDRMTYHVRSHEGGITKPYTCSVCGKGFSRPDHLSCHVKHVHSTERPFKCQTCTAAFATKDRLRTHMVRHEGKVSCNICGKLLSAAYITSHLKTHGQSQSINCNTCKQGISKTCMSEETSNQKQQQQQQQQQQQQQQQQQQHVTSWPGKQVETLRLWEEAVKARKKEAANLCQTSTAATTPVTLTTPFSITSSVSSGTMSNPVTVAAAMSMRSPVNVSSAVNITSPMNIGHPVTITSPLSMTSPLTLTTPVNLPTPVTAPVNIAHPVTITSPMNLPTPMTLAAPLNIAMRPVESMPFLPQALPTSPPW", "assay": "pulldown; 150 mM NaCl, 50 mM Tris pH 8, 0.25% NP-40, 1 mM TCEP; 4 C, 2 h; 100 ug HeLa nuclear lysate", "details": "protein: extract; label: 5' biotin (strand 1)"}, "SP1": {"target": "SP1 (Homo sapiens, UniProt P08047)", "assay": "pulldown; 150 mM NaCl, 50 mM Tris pH 8, 0.25% NP-40, 1 mM TCEP; 4 C, 2 h; 100 ug HeLa nuclear lysate", "details": "protein: extract; label: 5' biotin (strand 1)"}, "KLF16": {"target": "KLF16 (Homo sapiens, UniProt Q9BXK1)", "sequence (Q9BXK1 whole entry)": "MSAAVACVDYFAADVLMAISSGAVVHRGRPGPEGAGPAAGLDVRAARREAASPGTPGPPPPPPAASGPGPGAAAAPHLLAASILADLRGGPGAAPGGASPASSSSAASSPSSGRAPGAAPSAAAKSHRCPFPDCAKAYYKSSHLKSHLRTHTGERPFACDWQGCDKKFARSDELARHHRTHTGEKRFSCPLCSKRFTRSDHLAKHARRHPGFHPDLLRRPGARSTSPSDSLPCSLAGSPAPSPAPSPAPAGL", "assay": "pulldown; 150 mM NaCl, 50 mM Tris pH 8, 0.25% NP-40, 1 mM TCEP; 4 C, 2 h; 100 ug HeLa nuclear lysate", "details": "protein: extract; label: 5' biotin (strand 1)"}, "TGIF1": {"target": "TGIF1 (Homo sapiens, UniProt Q15583)", "sequence (Q15583 whole entry)": "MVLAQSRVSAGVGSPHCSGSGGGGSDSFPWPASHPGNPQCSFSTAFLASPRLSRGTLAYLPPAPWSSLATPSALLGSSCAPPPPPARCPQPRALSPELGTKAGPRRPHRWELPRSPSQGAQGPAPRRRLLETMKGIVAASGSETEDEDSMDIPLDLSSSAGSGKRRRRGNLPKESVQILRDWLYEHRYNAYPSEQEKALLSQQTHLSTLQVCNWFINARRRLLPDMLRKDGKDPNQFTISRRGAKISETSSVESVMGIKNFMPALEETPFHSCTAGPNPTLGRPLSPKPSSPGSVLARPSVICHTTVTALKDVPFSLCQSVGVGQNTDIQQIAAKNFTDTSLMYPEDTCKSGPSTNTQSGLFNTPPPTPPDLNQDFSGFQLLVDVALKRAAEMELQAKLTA", "assay": "pulldown; 150 mM NaCl, 50 mM Tris pH 8, 0.25% NP-40, 1 mM TCEP; 4 C, 2 h; 100 ug HeLa nuclear lysate", "details": "protein: extract; label: 5' biotin (strand 1)"}, "ELF2": {"target": "ELF2 (Homo sapiens, UniProt Q15723)", "sequence (Q15723 whole entry)": "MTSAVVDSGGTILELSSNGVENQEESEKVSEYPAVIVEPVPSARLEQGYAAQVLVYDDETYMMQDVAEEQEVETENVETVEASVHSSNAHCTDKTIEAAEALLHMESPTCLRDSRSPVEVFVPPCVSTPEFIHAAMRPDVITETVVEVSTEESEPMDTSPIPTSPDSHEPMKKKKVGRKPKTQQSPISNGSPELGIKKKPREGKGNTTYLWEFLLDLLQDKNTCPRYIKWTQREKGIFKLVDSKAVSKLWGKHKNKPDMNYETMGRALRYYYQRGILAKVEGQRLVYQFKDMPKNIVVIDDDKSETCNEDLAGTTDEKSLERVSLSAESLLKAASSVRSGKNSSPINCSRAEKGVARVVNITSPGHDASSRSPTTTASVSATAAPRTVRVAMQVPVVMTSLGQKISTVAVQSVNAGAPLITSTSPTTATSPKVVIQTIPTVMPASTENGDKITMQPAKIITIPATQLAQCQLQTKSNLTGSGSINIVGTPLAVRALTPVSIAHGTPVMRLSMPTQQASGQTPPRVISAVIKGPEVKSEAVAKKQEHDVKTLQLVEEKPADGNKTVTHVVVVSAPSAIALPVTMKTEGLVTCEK", "assay": "pulldown; 150 mM NaCl, 50 mM Tris pH 8, 0.25% NP-40, 1 mM TCEP; 4 C, 2 h; 100 ug HeLa nuclear lysate", "details": "protein: extract; label: 5' biotin (strand 1)"}, "BBX": {"target": "T2, BBX (Homo sapiens, UniProt Q8WY36)", "T2 sequence": "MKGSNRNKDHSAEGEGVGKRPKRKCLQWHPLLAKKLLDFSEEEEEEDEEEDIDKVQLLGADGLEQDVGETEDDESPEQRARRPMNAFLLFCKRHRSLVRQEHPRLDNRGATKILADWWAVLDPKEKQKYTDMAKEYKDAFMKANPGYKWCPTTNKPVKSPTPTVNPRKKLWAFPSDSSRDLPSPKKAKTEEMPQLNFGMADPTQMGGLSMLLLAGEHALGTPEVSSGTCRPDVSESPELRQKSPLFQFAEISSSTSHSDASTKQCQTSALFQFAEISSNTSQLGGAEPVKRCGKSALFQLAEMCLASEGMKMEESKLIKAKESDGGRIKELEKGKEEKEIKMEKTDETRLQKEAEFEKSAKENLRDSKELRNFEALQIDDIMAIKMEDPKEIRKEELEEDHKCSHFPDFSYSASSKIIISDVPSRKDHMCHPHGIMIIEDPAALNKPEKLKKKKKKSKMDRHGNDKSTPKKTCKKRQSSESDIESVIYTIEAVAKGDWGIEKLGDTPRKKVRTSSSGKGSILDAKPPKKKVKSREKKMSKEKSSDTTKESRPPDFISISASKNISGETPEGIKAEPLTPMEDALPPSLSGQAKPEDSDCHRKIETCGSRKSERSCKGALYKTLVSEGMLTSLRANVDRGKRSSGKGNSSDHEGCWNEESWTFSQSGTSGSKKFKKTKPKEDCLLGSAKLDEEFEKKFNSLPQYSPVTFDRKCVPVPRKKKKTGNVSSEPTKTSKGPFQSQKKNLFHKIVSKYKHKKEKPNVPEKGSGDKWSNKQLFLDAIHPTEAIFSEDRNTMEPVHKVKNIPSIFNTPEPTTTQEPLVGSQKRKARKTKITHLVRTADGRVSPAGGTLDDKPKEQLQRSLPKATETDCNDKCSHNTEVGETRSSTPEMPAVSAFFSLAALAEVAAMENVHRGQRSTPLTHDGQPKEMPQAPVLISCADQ", "assay": "pulldown; 150 mM NaCl, 50 mM Tris pH 8, 0.25% NP-40, 1 mM TCEP; 4 C, 2 h; 100 ug HeLa nuclear lysate", "details": "protein: extract; label: 5' biotin (strand 1)"}, "SIX2": {"target": "T3, SIX2 (Homo sapiens, UniProt Q9NPC8)", "T3 sequence": "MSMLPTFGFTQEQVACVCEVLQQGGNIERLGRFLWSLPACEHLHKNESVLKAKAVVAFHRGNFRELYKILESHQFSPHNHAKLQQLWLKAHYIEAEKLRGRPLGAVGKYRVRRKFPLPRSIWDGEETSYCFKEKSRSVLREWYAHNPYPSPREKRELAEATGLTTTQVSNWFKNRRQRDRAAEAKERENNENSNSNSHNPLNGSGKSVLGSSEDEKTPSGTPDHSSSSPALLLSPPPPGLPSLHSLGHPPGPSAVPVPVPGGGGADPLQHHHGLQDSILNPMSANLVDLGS", "assay": "pulldown; 150 mM NaCl, 50 mM Tris pH 8, 0.25% NP-40, 1 mM TCEP; 4 C, 2 h; 100 ug HeLa nuclear lysate", "details": "protein: extract; label: 5' biotin (strand 1)"}, "TFAP2A": {"target": "TFAP2A (Homo sapiens, UniProt P05549)", "sequence (P05549 whole entry)": "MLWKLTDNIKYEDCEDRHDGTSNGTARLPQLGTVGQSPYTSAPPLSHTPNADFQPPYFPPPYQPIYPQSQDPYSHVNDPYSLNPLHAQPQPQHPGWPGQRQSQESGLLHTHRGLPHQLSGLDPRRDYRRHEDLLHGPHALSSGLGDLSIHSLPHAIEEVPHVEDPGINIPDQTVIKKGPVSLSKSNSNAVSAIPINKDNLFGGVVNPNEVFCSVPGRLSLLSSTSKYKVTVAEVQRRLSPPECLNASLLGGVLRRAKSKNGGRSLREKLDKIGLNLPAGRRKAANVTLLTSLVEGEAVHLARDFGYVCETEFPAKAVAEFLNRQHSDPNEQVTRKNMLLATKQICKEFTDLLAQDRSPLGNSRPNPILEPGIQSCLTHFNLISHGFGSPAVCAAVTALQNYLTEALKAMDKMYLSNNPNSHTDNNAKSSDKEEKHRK", "assay": "pulldown; 150 mM NaCl, 50 mM Tris pH 8, 0.25% NP-40, 1 mM TCEP; 4 C, 2 h; 100 ug HeLa nuclear lysate", "details": "protein: extract; label: 5' biotin (strand 1)"}, "SMARCB1-WHD": {"target": "SMARCB1-WHD (UniProt Q12824 1-113)", "sequence (Q12824 1-113)": "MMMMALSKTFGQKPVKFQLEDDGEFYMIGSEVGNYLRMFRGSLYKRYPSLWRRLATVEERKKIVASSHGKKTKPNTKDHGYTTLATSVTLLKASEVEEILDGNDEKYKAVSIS", "assay": "pull-down; Pull-down: 150 mM NaCl (or LiCl), 50 mM Tris pH 8, 0.25% NP-40, 1 mM TCEP, protease inhibitors, 4 C, 2 h; EMSA with lysate in same buffer, RT 15 min; FP in PBS, 25 C", "details": "protein: recombinant; label: 5' biotin; G4"}, "PHF10-DPF": {"target": "T4, PHF10-DPF (UniProt Q8WUB8 379-481)", "T4 sequence": "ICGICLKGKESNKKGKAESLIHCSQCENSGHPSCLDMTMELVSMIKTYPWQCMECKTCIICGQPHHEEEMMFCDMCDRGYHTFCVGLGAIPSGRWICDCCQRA", "assay": "pull-down; Pull-down: 150 mM NaCl (or LiCl), 50 mM Tris pH 8, 0.25% NP-40, 1 mM TCEP, protease inhibitors, 4 C, 2 h; EMSA with lysate in same buffer, RT 15 min; FP in PBS, 25 C", "details": "protein: recombinant; tags: GST; label: 5' biotin; G4"}, "ZBTB7A": {"target": "ZBTB7A (Homo sapiens, UniProt O95365)", "assay": "pulldown; 150 mM NaCl, 50 mM Tris pH 8, 0.25% NP-40, 1 mM TCEP; 4 C, 2 h; 100 ug HeLa nuclear lysate", "details": "protein: extract; label: 5' biotin (strand 1)"}, "ZBTB7B": {"target": "ZBTB7B (Homo sapiens, UniProt O15156)", "sequence (O15156 whole entry)": "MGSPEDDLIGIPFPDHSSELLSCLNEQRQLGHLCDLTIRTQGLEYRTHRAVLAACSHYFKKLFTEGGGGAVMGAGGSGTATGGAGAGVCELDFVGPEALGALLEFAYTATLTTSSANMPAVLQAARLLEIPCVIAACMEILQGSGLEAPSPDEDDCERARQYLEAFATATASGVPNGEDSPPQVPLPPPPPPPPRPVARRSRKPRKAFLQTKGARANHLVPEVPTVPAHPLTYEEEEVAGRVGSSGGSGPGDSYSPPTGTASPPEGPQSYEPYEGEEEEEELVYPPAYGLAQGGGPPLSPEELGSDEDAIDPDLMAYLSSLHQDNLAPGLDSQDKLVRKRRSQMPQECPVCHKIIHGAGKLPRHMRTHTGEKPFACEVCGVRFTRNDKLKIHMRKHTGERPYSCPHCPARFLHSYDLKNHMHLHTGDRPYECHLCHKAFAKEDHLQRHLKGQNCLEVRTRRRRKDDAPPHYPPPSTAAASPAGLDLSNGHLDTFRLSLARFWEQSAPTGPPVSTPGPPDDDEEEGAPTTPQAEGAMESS", "assay": "pulldown; 150 mM NaCl, 50 mM Tris pH 8, 0.25% NP-40, 1 mM TCEP; 4 C, 2 h; 100 ug HeLa nuclear lysate", "details": "protein: extract; label: 5' biotin (strand 1)"}}}
{"binder": "NF-Y (dsDNA) DNA 1: ATTGACCAATCAGAGGTAGGATGAT DNA 2: ATCATCCTACCTCTGATTGGTCAAT", "values": [{"measurement": "apparent K (half saturation)", "setting": "DLX3", "value": 52.9, "unit": "nM"}, {"measurement": "apparent K (half saturation)", "setting": "ZNF787", "value": 394, "unit": "nM"}, {"measurement": "apparent K (half saturation)", "setting": "ZFHX3", "value": 56.9, "unit": "nM"}, {"measurement": "apparent K (half saturation)", "setting": "GATA2", "value": 126, "unit": "nM"}, {"measurement": "apparent K (half saturation)", "setting": "RREB1", "value": 283, "unit": "nM"}, {"measurement": "apparent K (half saturation)", "setting": "VEZF1", "value": 249, "unit": "nM"}, {"measurement": "apparent K (half saturation)", "setting": "SP1", "value": 185, "unit": "nM"}, {"measurement": "apparent K (half saturation)", "setting": "KLF16", "value": 200, "unit": "nM"}]}
{"binder": "AP-1 (dsDNA) DNA 1: AGTCGGCTAGCTGACTCAGGATGTCC DNA 2: GGACATCCTGAGTCAGCTAGCCGACT", "values": [{"measurement": "apparent K (half saturation)", "setting": "TGIF1", "value": 322, "unit": "nM"}, {"measurement": "apparent K (half saturation)", "setting": "ELF2", "value": 205, "unit": "nM"}, {"measurement": "apparent K (half saturation)", "setting": "BBX", "value": 308, "unit": "nM"}, {"measurement": "apparent K (half saturation)", "setting": "SIX2", "value": 59.9, "unit": "nM"}, {"measurement": "apparent K (half saturation)", "setting": "RREB1", "value": 317, "unit": "nM"}, {"measurement": "apparent K (half saturation)", "setting": "TFAP2A", "value": 363, "unit": "nM"}, {"measurement": "apparent K (half saturation)", "setting": "VEZF1", "value": 255, "unit": "nM"}]}
{"binder": "TGGGGAGGGTGGGGAGGGTGGGGAAGG (structured_DNA)", "note": "[mycG4 (Pu27)]", "values": [{"measurement": "binding result", "setting": "SMARCB1-WHD", "value": "binds"}, {"measurement": "binding result", "setting": "PHF10-DPF", "value": "no binding"}]}
{"binder": "E-box (dsDNA) DNA 1: GGAAGCAGACCACGTGGTCTGCTTCC DNA 2: GGAAGCAGACCACGTGGTCTGCTTCC", "values": [{"measurement": "apparent K (half saturation)", "setting": "ZBTB7A", "value": 404, "unit": "nM"}, {"measurement": "apparent K (half saturation)", "setting": "ZBTB7B", "value": 405, "unit": "nM"}]}
